From patent US20260001954A1 (Genentech, published 2026)

How the values were obtained:
[1] = target: T1, CD3 (cluster of differentiation 3) (UniProt P07766 23-126); assay: method not stated; monovalent KD used to calculate CD3 receptor occupancy; monovalent KD, used for CD3 receptor occupancy
T1 construct: also called CD3 antigen

[2] = target: CD3 on T cells of human peripheral blood mononuclear cells (PBMCs) (human, UniProt P07766 23-207); assay: cell-based or functional assay
Sequence of CD3 on T cells of human peripheral blood mononuclear cells (PBMCs) (P07766 23-207): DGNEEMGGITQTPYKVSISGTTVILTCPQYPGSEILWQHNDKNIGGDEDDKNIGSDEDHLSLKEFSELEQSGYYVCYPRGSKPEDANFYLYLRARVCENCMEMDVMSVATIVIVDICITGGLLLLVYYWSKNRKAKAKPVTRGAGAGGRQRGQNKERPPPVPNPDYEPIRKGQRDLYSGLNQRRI

T1 sequence (P07766 23-126): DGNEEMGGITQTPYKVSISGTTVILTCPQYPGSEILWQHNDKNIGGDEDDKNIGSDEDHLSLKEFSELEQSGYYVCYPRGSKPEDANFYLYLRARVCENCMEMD

Kd [1]: 2.6 nM | 50% effective concentration (EC50) for T-cell activation in the in vitro human PBMC: MOLP-2 co-culture [2]: 58.8 ng/mL
B1: cevostamab (bispecific antibody, human IgG1, kappa, N297G)
heavy 1: not shown
light 1: DIQMTQSPSSLSASVGDRVTITCKASQDVRNLVVWFQQKPGKAPKLLIYSGSYRYSGVPSRFSGSGSGTDFTLTISSLQPEDFATYYCQQHYSPPYTFGQGTKVEIKRTVAAPSVFIFPPSDEQLKSGTASVVCLLNNFYPREAKVQWKVDNALQSGNSQESVTEQDSKDSTYSLSSTLTLSKADYEKHKVYACEVTHQGLSSPVTKSFNRGEC
heavy 2: EVQLVQSGAEVKKPGASVKVSCKASGFTFTSYYIHWVRQAPGQGLEWIGWIYPENDNTKYNEKFKDRVTITADTSTSTAYLELSSLRSEDTAVYYCARDGYSRYYFDYWGQGTLVTVSSASTKGPSVFPLAPSSKSTSGGTAALGCLVKDYFPEPVTVSWNSGALTSGVHTFPAVLQSSGLYSLSSVVTVPSSSLGTQTYICNVNHKPSNTKVDKKVEPKSCDKTHTCPPCPAPELLGGPSVFLFPPKPKDTLMISRTPEVTCVVVDVSHEDPEVKFNWYVDGVEVHNAKTKPREEQYGSTYRVVSVLTVLHQDWLNGKEYKCKVSNKALPAPIEKTISKAKGQPREPQVYTLPPSREEMTKNQVSLSCAVKGFYPSDIAVEWESNGQPENNYKTTPPVLDSDGSFFLVSKLTVDKSRWQQGNVFSCSVMHEALHNHYTQKSLSLSPGK
light 2: not shown
notes: Humanized full-length non-glycosylated IgG1 kappa, knobs-into-holes; also called BFCR4350A; RO7187797
